Results from US20220380442A1 (published 2022).

Experiments:
[1] = target: T1, Puumala virus (PUUV) glycoproteins Gn and Gc displayed on Expi293F cells (full-length M segment, plasmid … (Puumala virus)); test: flow
T1 chain 1: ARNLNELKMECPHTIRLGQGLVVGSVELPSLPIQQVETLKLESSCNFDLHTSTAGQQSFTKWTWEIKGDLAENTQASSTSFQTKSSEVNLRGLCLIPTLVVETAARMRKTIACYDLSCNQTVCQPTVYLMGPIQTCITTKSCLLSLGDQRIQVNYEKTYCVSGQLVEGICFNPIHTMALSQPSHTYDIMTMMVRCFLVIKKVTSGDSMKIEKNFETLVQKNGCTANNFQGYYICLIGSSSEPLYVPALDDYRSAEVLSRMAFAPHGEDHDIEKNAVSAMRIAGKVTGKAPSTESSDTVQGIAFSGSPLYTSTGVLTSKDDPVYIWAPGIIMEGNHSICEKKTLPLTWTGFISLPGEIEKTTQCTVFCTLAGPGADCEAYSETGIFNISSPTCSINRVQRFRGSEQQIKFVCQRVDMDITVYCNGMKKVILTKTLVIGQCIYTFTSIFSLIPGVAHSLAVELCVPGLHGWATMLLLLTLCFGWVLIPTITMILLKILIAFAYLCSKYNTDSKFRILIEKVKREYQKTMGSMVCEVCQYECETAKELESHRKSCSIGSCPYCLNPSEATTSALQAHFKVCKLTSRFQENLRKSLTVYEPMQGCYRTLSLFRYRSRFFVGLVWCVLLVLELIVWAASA
T1 chain 2: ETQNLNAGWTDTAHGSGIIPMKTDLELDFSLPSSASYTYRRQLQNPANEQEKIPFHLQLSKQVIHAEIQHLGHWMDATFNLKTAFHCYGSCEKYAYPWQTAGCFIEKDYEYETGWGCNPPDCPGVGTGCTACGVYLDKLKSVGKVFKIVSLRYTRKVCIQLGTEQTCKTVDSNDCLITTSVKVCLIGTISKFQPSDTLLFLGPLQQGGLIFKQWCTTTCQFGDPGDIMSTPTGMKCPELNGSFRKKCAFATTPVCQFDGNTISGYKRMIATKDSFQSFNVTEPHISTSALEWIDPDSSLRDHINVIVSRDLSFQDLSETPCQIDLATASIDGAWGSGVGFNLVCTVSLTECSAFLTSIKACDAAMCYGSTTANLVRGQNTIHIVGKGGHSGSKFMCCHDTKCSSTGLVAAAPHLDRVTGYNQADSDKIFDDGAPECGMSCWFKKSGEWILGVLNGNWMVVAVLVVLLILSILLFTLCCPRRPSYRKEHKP

[2] = target: Sin Nombre virus (SNV) glycoproteins Gn and Gc displayed on the surface of Expi293F cells transfected with … (Sin Nombre virus); test: flow

B1: ANDV-69 (antibody, V domains shown)
VH: QVHLQESGPGLVKPSETLSLTCAVSGYSISSGYCWGWIRQTPGKGLEWIGSIWHTGTTYYNPSLKSRVTISLDTSKNQFSLKLSSLTAADTAVYYCARAIYDSSGYSPFSGLDIWGQGTTVTISS
VL: QSVLTQPPSVSAAPGQKVTISCSGSSSNIGNNYVSWYQQVPGTAPKLLFYDNNKRPSGIPYRFSGSKSGTSATLAITGLQTGDEADYYCGTWDSSLNLWVFGGGTKLTVL
EC50 [1]: 0.541 µg/mL

B2: ANDV-5 (antibody, V domains shown)
VH: QVQLLQSGAEVKKPGSSVRVSCQSSGDIYNYYGISWVRQAPGQGLEWMGGIIPVYGRPNYVQKFRGRVTFTVDKSTSTAYMELSTLRADDTAVYYCARDTARSHYFGSGNDYGMDVWGQGTTVIVSS
VL: DIVMTQSPLSLPVTPGEPASISCRSSQSLLHSNGFNFVDWYLQKPGQSPQLLIYLGSTRASGVPDRFSGSGSGTDFTLEISRVEAEDVGVYYCMQALQFPRTFGQGTKLDIK
EC50 [1]: 0.148 µg/mL

B3: ANDV-2 (antibody, V domains shown)
VH: QVTLKESGPALVKPTQTLTLTCTFSGFSLSTSGMRVSWIRQPPGKALEWLARIDWDDDKFYSTSLKTRLTISKDTSKNQVVLIMTNMDPVDTATYYCARMMVGEGTFDYWGQGTLVTVSS
VL: DIQMTQFPSTLSASVGDRVTITCRASQDISSLLAWYQQKPGKAPKLLIYTASNLEGGVPSRFSGSGSGTEFTLTISSLQPDDFATYYCQQYIRYWTFGQGTKVEIK
EC50 [2]: 0.011 µg/mL

B4: ANDV-59 (antibody, V domains shown)
VH: QVVLQESGPGLVKPSETLSLTCTVSGGSINNYYWSWIRQPPGKGLEWIGWLYYSGITTFNPSLKSRVTISIDTSKNQVSLNLRSVTAADTAVYYCARVQGSDSSGYYHLKSDWFDPWGQGIPVTVSS
VL: QSVLTQPPSVSAAPGQTVTISCSGSSSNIRHNFVSWYQQLPGTAPKLVIYENNKRPSGIPDRFSGSKSGTSATLGITGLQTGDEADYYCGTWDSSLSAPHWVFGGGTRLTVL
EC50 [1]: 0.123 µg/mL | EC50 [2]: 0.0093 µg/mL
